T1: cyclo(CGHHQKG) conjugated to BSA (also: conjugated to BSA, site not given here)
T1 construct: also called Cyclic Peptide; cyclopeptide
T1 peptide: cyclo(CGHHQKG)


Columns and labels:
[1] = molecular target: T2, commercially-prepared stable A-beta42 Oligomers (SynAging SAS) (human); assay: ProteOn biosensor, antibody captured with anti-mouse IgG or amine-coupled on GLM chip, AbO 12.3 nM to 1 µM; hybridoma-purified antibody
T2 construct: Bought oligomer preparation; also called AbO; SynAging AbO
T2 sequence (peptide, as listed by the source): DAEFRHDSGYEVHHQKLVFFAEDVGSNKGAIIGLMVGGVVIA
Protocol: (§1) AbO 3 fold-dilutions were used: 1 μM, 0.33 μM, 0.11 μM, 37 nM, 12.3 nM. Assay buffer was PBS-E+Tween 20+2 mg/ml BSA.

[2] = molecular target: T2, commercially-prepared stable A-beta42 …; assay: ProteOn biosensor, antibody captured with anti-mouse IgG or amine-coupled on GLM chip, AbO 12.3 nM to 1 µM; upper end of the printed range 16.2-19.5 nM; test or coupling not stated
Protocol: as §1

[3] = molecular target: T2, commercially-prepared stable A-beta42 …; assay: ProteOn biosensor, antibody captured with anti-mouse IgG or amine-coupled on GLM chip, AbO 12.3 nM to 1 µM; lower end of the printed range 16.2-19.5 nM; test or coupling not stated
Protocol: as §1

[4] = molecular target: T1, cyclo(CGHHQKG) conjugated to BSA; assay: ProteOn biosensor, antibody amine-coupled to GLH chip, cyclo-BSA 111 pM to 9 nM
Protocol: Cyclo-BSA 3-fold dilutions were used from 9 nM to 111 pM. Assay buffer was PBS-E+0.05% Tween+10 mg/ml BSA.

Kd [1] [nM] | Kd [2] [nM] | Kd [3] [nM] | Kd [4] [nM] | Binder
~26.9 | – | – | – | 301-17 (hybridoma-purified IgG3) (antibody, V domains shown, Mouse hybridoma monoclonal, IgG3) VH: QVQLQQPGAELVKPGASVKMSCKASGYSFTSYWINWVKQRPGQGLEWIGDVHPGRGVSTYNAKFKSKATLTLDTSSSTAYMQLSSLTSEDSAVYYCSRSHGNTYWFFDVWGAGTTVTVSS VL: DVLMTQTPLSLPVSLGDQASISCRSSQSIVHSNGNTYLEWYLQKPGQSPKLLIYKVSNRFSGVPDRFSGSGSGTDFTLKISRVEAEDLGVYYCFQGSHVPFTFGSGTKLEIK
– | 16.2 to 19.5 | 16.2 to 19.5 | ~0.017 | Recombinant 301-17 IgG2a (antibody) heavy: QVQLQQPGAELVKPGASVKMSCKASGYSFTSYWINWVKQRPGQGLEWIGDVHPGRGVSTYNAKFKSKATLTLDTSSSTAYMQLSSLTSEDSAVYYCSRSHGNTYWFFDVWGAGTTVTVSSAKTTAPSVYPLAPVCGDTTGSSVTLGCLVKGYFPEPVTLTWNSGSLSSGVHTFPAVLQSDLYTLSSSVTVTSSTWPSQSITCNVAHPASSTKVDKKIEPRGPTIKPCPPCKCPAPNLLGGPSVFIFPPKIKDVLMISLSPIVTCVVVDVSEDDPDVQISWFVNNVEVHTAQTQTHREDYNSTLRVVSALPIQHQDWMSGKEFKCKVNNKDLPAPIERTISKPKGSVRAPQVYVLPPPEEEMTKKQVTLTCMVTDFMPEDIYVEWTNNGKTELNYKNTEPVLDSDGSYFMYSKLRVEKKNWVERNSYSCSVVHEGLHNHHTTKSFSRTPGK light: DVLMTQTPLSLPVSLGDQASISCRSSQSIVHSNGNTYLEWYLQKPGQSPKLLIYKVSNRFSGVPDRFSGSGSGTDFTLKISRVEAEDLGVYYCFQGSHVPFTFGSGTKLEIKRADAAPTVSIFPPSSEQLTSGGASVVCFLNNFYPKDINVKWKIDGSERQNGVLNSWTDQDSKDSTYSMSSTLTLTKDEYERHNSYTCEATHKTSTSPIVKSFNRNEC
